Assay results taken from US20040228866A1, “Suppressor genes” (Ludwig Institute for Cancer Research, priority 2000, published 2004).

Tests used:
p53 [1] = target: T1, p53 (Homo sapiens, UniProt P04637); assay: Co-immunoprecipitation with p53 in transfected Saos-2 cells; type: binding
T1 construct: expressed in transfected cells
Protocol: The cells were lysed in NP40 lysis buffer and 1000 μg of lysate immunoprecipitated with antibodies to iASPP bound to Protein G beads.

p53 [2] = target: T1, p53; assay: Transient luciferase reporter assay of p53 transactivation function in Saos-2 cells; type: cell-based; details: for effect on ASPP stimulation of p53 transactivation function on the Bax promoter: co-expressed with p53 and ASPP1 or ASPP2
Protocol: (§1) The amount of luciferase expression was determined as previously described in Samuels-Lev et al. (Mol. Cell 8:781-94, 2001, herein incorporated by reference).
(§2) The amount of transactivation function was determined as described in Example 4.
(§3) To determine the amount of protein expression, Saos-2 cells (5×10^5) were plated 24 hours prior to transfection in 6 cm dishes. […] To determine the amount of gene activation, after transfection, the cells were lysed in Reporter Lysis Buffer 16-24 hours post-wash and assayed using the Luciferase Assay kit (Promega, Wis.). The fold activation of a particular reporter was determined by the activity of the transfected plasmid above the activity of vector alone.
(§4) The expression level of transfected proteins was detected using 40 μg of the respective lysates using the antibodies V5, DX.5410, DO1, 4A4 and p73. […] Results were derived from at least three independent experiments.

[3] = system: rat embryo fibroblasts (REFs); assay: Transformation of rat embryo fibroblasts with E7; type: cell-based; details: co-transfected with E7, FIG. 10A
Saos-2 cells = assay: Apoptosis by flow cytometry (CD20-gated, sub-G1 DNA content) in transfected Saos-2 cells; type: cell-based
Protocol: Apoptosis was identified by the expression of the co-transfected cell surface marker CD20, as described in Samuels-Lev et al. (Mol. Cell 8:781-94, 2001, herein incorporated by reference).
The number of apoptotic cells was determined using the methods described in Example 6.
Cells (10^6) were plated 24-48 hours prior to transfection in 10 cm plates. Cells were grown in DMEM supplemented with 10% FCS and transfected with 2 μg of a plasmid expressing CD20 as a transfection marker. Increasing amounts of ASPP1 and ASPP2 were transfected (7.5 μg, 15 μg and 25 μg). 36 hours after the transfection, both attached and floating cells were harvested and analysed using flow cytometry as follows. The transfected cells were gated based on the expression of CD20. The percentage of apoptotic cells was measured by the accumulation of cells with a sub-G1 DNA content derived from at least three individual experiments.
The transfected cells were analyzed by flow cytometry as described in Example 6.

MCF-7 cells = assay: Cellular resistance to the cytotoxic effect of cisplatin in MCF-7 cells; type: cell-based, human; details: iASPP-expressing versus non-expressing cells, FIG. 10B
Text: Many chemotherapy drugs are DNA-damage agents and induce apoptosis via p53-dependent pathway. […] The cellular resistance to the cytotoxic effect of cisplatin were compared between iASPP-expressing and non-expressing iASPP MCF-7 cells. Expression of iASPP enhanced the cellular resistance by about 2.5 fold (FIG. 10B). Such an increase in cellular resistance to cisplatin is significant with respect to cancer treatment.

U2OS and MCF7 cells = assay: Apoptosis by FACS in U2OS and MCF7 cells expressing wild-type p53, with or without cisplatin; type: cell-based, human; details: for effect on cisplatin-induced apoptosis: transfected before cisplatin, FIGS. 7B and 7D
Protocol: The transfected cells were gated, and the apoptotic cells identified by FACS as described in Example 6.
Before exposure to cisplatin (5 and 3 μg/ml respectively), U2OS and MCF7 cells were transfected with plasmids encoding HPV16 E6, iASPP, or 53BP2. Thirty hours later, cells were harvested and analysed as above.
Fragments from the 5′ ends of ASPP1, ASPP2 and iASPP cDNA were cloned into a mammalian expression vector in an antisense orientation and their ability to inhibit the protein synthesis determined in vitro. The antisense nucleic acid molecules were amplified by PCR on the respective plasmid clones using primers spanning the following nucleotide regions (relative to the initial ATG): −74 to 923; −253 to 839 and −37 to 536 for ASPP1, ASPP2 and iASPP respectively. The amplified segments were purified with the QIAquick PCR purification kit (QIAGEN) and ligated in the pcDNA3.1/V5-His TOPO vector (Invitrogen) according to the manufacturer's instructions.
U2OS and MCF-7 cells were transfected with the various expression plasmids prior to the treatment with cisplatin and analyzed using FACS as described above.
To determine the anti-apoptotic role of iASPP, both U2OS and MCF-7 cells were transfected with antisense iASPP and cells analyzed as described above. […] A small increase in apoptotic cells was consistently detected (FIG. 7D).

p53 [4] = assay: Transient luciferase reporter assay of p53 transactivation function in Saos-2 cells; type: cell-based; details: expressed without p53, FIG. 8B
Protocol: as §1, §2, §3, §4

T1 sequence (P04637 whole entry): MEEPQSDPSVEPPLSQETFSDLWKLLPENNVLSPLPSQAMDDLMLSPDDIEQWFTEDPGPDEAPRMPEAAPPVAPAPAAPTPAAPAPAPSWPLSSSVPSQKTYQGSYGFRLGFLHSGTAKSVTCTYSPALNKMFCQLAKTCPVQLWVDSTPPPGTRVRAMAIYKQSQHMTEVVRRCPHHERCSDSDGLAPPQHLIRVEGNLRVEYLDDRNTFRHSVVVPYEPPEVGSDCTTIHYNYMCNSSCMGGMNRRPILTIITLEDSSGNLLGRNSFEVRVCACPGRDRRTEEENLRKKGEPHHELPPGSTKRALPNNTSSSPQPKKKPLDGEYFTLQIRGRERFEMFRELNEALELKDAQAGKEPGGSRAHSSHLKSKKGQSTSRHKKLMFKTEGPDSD

B1: iASPP: Inhibitor of Apoptosis Stimulating Proteins, p65 rel A binding protein of 315 amino acids, SEQ ID NO: 6 (protein)
chain: MWMKDPVARPLSPTRLQPALPPEAQSVPELEEVARVLAEIPRPLKRRGSMEQAPAVALPPTHKKQYQQIISRLFHRHGGPGPGGRSQSCPPSLRDLRPGQGPLLLPHQLPFHRPAPSQSSPPEQPQSMEMRSVLRKAGSPRKARRARLNPLVLLLDAALTGELEVVQQAVKEMNDPSQPNEEGITALHNAICGANYSIVDFLITAGANVNSPDSHGWTPLHCAASCNDTVICMALVQHGAAIFATTLSDGATAFEKCDPYREGYADCATYLADVEQSMGLMNSGAVYALWDYSAEFGDELSFREGESVTVLRRDGPEETDWWWAALHGQEGYVPRNYFGLFPRVKPQRSKV
modifications: homo sapiens
p53 [1]
  interaction with p53 by immunoprecipitation and western blot: interacted with p53
p53 [2]
  effect on ASPP stimulation of p53 transactivation function on the Bax promoter: decreased or eliminated the ability
[3]
  transforming function of E7: enhanced the transforming function of E7 significantly
Saos-2 cells; co-expressed with p53
  effect on the apoptotic function of wild type p53: small inhibitory effect
Saos-2 cells; co-expressed with p53 and ASPP1 or ASPP2
  effect on the enhancement of p53 apoptotic function by ASPP1 and ASPP2: decreased or inhibited the enhanced apoptotic function of p53
Saos-2 cells; no p53 co-expressed
  apoptosis when expressed alone: did not induce apoptosis on its own
MCF-7 cells
  enhancement of cellular resistance to cisplatin: about 2.5 fold
U2OS and MCF7 cells
  effect on cisplatin-induced apoptosis: inhibited cisplatin-induced apoptosis to a similar extent as E6

B2: ASPP2/53BP2: 528 amino acid C-terminal polypeptide, amino acids 600-1128 of ASPP2 (protein)
chain: KPQTVAASSIYSMYTQQQAPGKNFQQAVQSALTKTHTRGPHFSSVYGKPVIAAAQNQQQHPENIYSNSQGKPGSPEPETEPVSSVQENHENERIPRPLSPTKLLPFLSNPYRNQSDADLEALRKKLSNAPRPLKKRSSITEPEGPNGPNIQKLLYQRTTIAAMETISVPSYPSKSASVTASSESPVEIQNPYLHVEPEKEVVSLVPESLSPEDVGNASTENSDMPAPSPGLDYEPEGVPDNSPNLQNNPEEPNPEAPHVLDVYLEEYPPYPPPPYPSGEPEGPGEDSVSMRPPEITGQVSLPPGKRTNLRKTGSERIAHGMRVKFNPLALLLDSSLEGEFDLVQRIIYEVDDPSLPNDEGITALHNAVCAGHTEIVKFLVQFGVNVNAADSDGWTPLHCAASCNNVQVCKFLVESGAAVFAMTYSDMQTAADKCEEMEEGYTQCSQFLYGVQEKMGIMNKGVIYALWDYEPQNDDELPMKEGDCMTIIHREDEDEIEWWWARLNDKEGYVPRNLLGLYPRIKPRQRSLA
modifications: left off: small tags and cut ends
notes: 528 amino acid C-terminal polypeptide, amino acids 600-1128 of ASPP2
p53 [2]; co-expressed with p53, FIG. 3
  reduction of the transactivation function of p53: about 50%
p53 [2]
  effect on ASPP stimulation of p53 transactivation function on the Bax promoter: inhibited ASPP2 stimulation
p53 [2]; co-expression with p53
  stimulation of p21waf1 and PG synthetic promoters: slight stimulation
  stimulation of the promoter activity of mdm2 and cyclin G: failed to stimulate
Saos-2 cells; p53, ASPP2 and ASPP2/53BP2 all co-expressed, FIG. 4C
  apoptotic cells: 30%
U2OS and MCF7 cells
  effect on cisplatin-induced apoptosis: inhibited cisplatin-induced apoptosis to a similar extent as E6

B3: E6: viral oncoprotein from human papilloma virus that binds p53 and targets it for degradation (protein, UniProt P03126 1-158, looked up)
Protein E6: MHQKRTAMFQDPQERPRKLPQLCTELQTTIHDIILECVYCKQQLLRREVYDFAFRDLCIVYRDGNPYAVCDKCLKFYSKISEYRHYCYSLYGTTLEQQYNKPLCDLLIRCINCQKPLCPEEKQRHLDKKQRFHNIRGRWTGRCMSCCRSSRTRRETQL
U2OS and MCF7 cells; cisplatin 5 and 3 μg/ml (U2OS, MCF7), thirty hours
  percentage of transfected cells that die of apoptosis after cisplatin: below 15%
U2OS and MCF7 cells; co-expression
  effect on apoptosis induced by ASPP1 or ASPP2: inhibited the apoptosis induced by ASPP1 or ASPP2
U2OS and MCF7 cells
  effect on cisplatin-induced apoptosis: reduced the percentage of apoptotic cells to half

B4: ASPP2/bBP2: 1005 amino acid polypeptide, amino acids 123-1128 of ASPP2 (protein)
chain: RMDLTLAELQEMASRQQQQIEAQQQLLATKEQRLKFLKQQDQRQQQQVAEQEKLKRLKEIAENQEAKLKKVRALKGHVEQKRLSNGKLVEEIEQMNNLFQQKQRELVLAVSKVEELTRQLEMLKNGRIDSHHDNQSAVAELDRLYKELQLRNKLNQEQNAKLQQQRECLNKRNSEVAVMDKRVNELRDRLWKKKAALQQKENLPVSSDGNLPQQAASAPSRVAAVGPYIQSSTMPRMPSRPELLVKPALPDGSLVIQASEGPMKIQTLPNMRSGAASQTKGSKIHPVGPDWSPSNADLFPSQGSASVPQSTGNALDQVDDGEVPLREKEKKVRPFSMFDAVDQSNAPPSFGTLRKNQSSEDILRDAQVANKNVAKVPPPVPTKPKQINLPYFGQTNQPPSDIKPDGSSQQLSTVVPSMGTKPKPAGQQPRVLLSPSIPSVGQDQTLSPGSKQESPPAAAVRPFTPQPSKDTLLPPFRKPQTVAASSIYSMYTQQQAPGKNFQQAVQSALTKTHTRGPHFSSVYGKPVIAAAQNQQQHPENIYSNSQGKPGSPEPETEPVSSVQENHENERIPRPLSPTKLLPFLSNPYRNQSDADLEALRKKLSNAPRPLKKRSSITEPEGPNGPNIQKLLYQRTTIAAMETISVPSYPSKSASVTASSESPVEIQNPYLHVEPEKEVVSLVPESLSPEDVGNASTENSDMPAPSPGLDYEPEGVPDNSPNLQNNPEEPNPEAPHVLDVYLEEYPPYPPPPYPSGEPEGPGEDSVSMRPPEITGQVSLPPGKRTNLRKTGSERIAHGMRVKFNPLALLLDSSLEGEFDLVQRIIYEVDDPSLPNDEGITALHNAVCAGHTEIVKFLVQFGVNVNAADSDGWTPLHCAASCNNVQVCKFLVESGAAVFAMTYSDMQTAADKCEEMEEGYTQCSQFLYGVQEKMGIMNKGVIYALWDYEPQNDDELPMKEGDCMTIIHREDEDEIEWWWARLNDKEGYVPRNLLGLYPRIKPRQRSLA
p53 [1]
  interaction with p53 by immunoprecipitation and western blot: interacted with p53 in vivo
p53 [2]; versions of ASPP2 co-expressed with p53, FIG. 3
  stimulation of the transactivation function of p53: about 2 fold

B5: Ikb: the inhibitor of p65 Rel A (protein, UniProt P25963 1-317, looked up)
NF-kappa-B inhibitor alpha: MFQAAERPQEWAMEGPRDGLKKERLLDDRHDSGLDSMKDEEYEQMVKELQEIRLEPQEVPRGSEPWKQQLTEDGDSFLHLAIIHEEKALTMEVIRQVKGDLAFLNFQNNLQQTPLHLAVITNQPEIAEALLGAGCDPELRDFRGNTPLHLACEQGCLASVGVLTQSCTTPHLHSILKATNYNGHTCLHLASIHGYLGIVELLVSLGADVNAQEPCNGRTALHLAVDLQNPDLVSLLLKCGADVNRVTYQGYSPYQLTWGRPSTRIQQQLGQLTLENLQMLPESEDEESYDTESEFTEFTEDELPYDDCVFGGQRLTL
p53 [2]; 50 ng co-expressed with p53
  inhibition of the transactivation function of p53 on the Bax promoter: very little inhibition
p53 [2]; FIG. 8C, Ikb even in the presence of ASPP2
  transactivation function of p53 on the mdm2 promoter: hardly decreased
p53 [2]
  effect on ASPP stimulation of p53 transactivation function on the Bax promoter: significantly decreased ASPP2-mediated stimulation
p53 [4]
  inhibition of Bax promoter reporter activity: did not show any detectable inhibition
Saos-2 cells; Example 11, p53+ASPP2 30%
  percentage of apoptotic cells, co-expressed with p53 and ASPP2: 16%
Saos-2 cells; Example 11, p53 alone […]%
  percentage of apoptotic cells, co-expressed with p53: 11%
Saos-2 cells; Example 11, vector alone 4.6%
  percentage of apoptotic cells, expressed alone: 7.2%
